Results from the domain aggregation screens of Martell et al. (2025).

Assay: soluble fraction after stress (log2 fold change); higher = more stays soluble; pooled small domains, quantitative proteomics
Details: stress: 75 degC
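Note: 20 min heating vs room temperature control held 20 min.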

Sequence	soluble fraction (log2)
HMDAPKPDIGMSTDQIRSSLGQPGSQTRLETGGGRIYELWIYLYPDGKELQIYFDNAKVVKMEALS	-1.19
HMTMRFVVADGQNFGSIAQSKALEAVKKGNTEFNYKDVDYTVDIQSDDFYVVYQGRDIMGYASR	-1.11
HMYSYSGSVINTYKVPVSVVLKDANGSAIASWDLPVDQSLGISAKDIATSSGTIEITGDGVNETKTVTFTK	-0.12
HMGRRERKKLQSRRAIIEAAVTEFKEKGFREASVADIMTRADLGLGTFYNYFQSKEDILMSLLS	-0.0594
HMSTISPNAFNFLQQNLNKFSDDAEGKMIKDILSKTTYDEYVKNEKSKTDFNSLLRRQTTTGDDNLNRYIN	-0.00511
HMQPVLSDAEVNDLKNIAGGERGYNQLMDWAGNNLTAQDAKSYDDVLATGNKAAISFAIKALMGQYEDAN	-0.0478
HMQKDAYVPDIISKLKSSRMIVVEGTIYPLLTRLKNTGLLSYRWEESLQGPPRKYYSITEQG	0.268
HMTIERVKIKETPTGWLRVRETPDNNGSEIGRANVGEIYELLGSKGEWYHIVYKGKQGFISTKYAEKVL	-0.999
HMVYNQYILTQSVRLREEPGISGRVIRLLETGTTVELVDTVVVNKDDYDWVWVKLSDGAVGWIIKSAIDI	-1.57
HMSQDEVVADMKADLGPDADNIIRSNIQWADGLVRKGILTESEREELDVMGGTPEAQRILVKLRTMQG	0.178
HMTAFSEQLIKLRKQKGLSQEQLGAAVGVTRQTVSKWELGDTTPELGKLVQLSDYFQLSIDELVGH	-0.703
HMDDPQAELLARAVRRVALAAAERTRRNEYGGVYLGLFRQFGISSYRRTPPARLHEALEWLERWRGDLM	-0.134
HMAKITERVMGSAALRDYDPNYLPDEVLKALDGYPPFDGYVYKDGILYARVKIGDTFFIIPPI	-2.53
HMTSTSVKYVNSSSGLNVRKGPSTSYDKVTTLVNGTKVTVISTNNGWSKITSGSITGYVSSQYLSSSS	-1.27
HMNPTLPYGFAKRHGVILLEAGEVAVVGLREGADPAALIETRRALGRPLRVEPLDQATFDRRLSQVYA	-0.512
HMTVVSVDDQASASSEAIRTKVAGDSAARMSVDAGGKITWGAGSASGDVTLYRSAANTLKTDDTLVAT	0.16
HMQEISQEEALATVLKDLSLTEADLKDLQITREEDKYKILFSKGQTAYDVLVSAKDGQLLQSKQETI	-0.313
HMQIIEVPYSEFLKKLESGQISEVSRDSYQIVFTDRSQPPIIYKTGLMEDPGLVDKMQEAGVTFTSP	0.256
HMGMYFTEMRKNEGLIALNGVAESNKRVSDLMDNLKDSSSFDAADIKAVKSGSGDASSLMDFELLVT	-0.0643
HMNKMIDAPDLTGLSLEDAKLVLEANKLQLGTVSHEPSDKPEDVVISQDPMEGQEIQQGGKVNLVVSYGD	0.305
HMIVSEYIIIGGDKKEYGPVSMGEVGEWVQGGRANGDSKIKKVGTEEWGRLRDFPEFSAYLS	0.121
HMAPETALQILEQIQINPKVTMTDLANLTGYSRRWVAQTMKQLQELNVIKRVGSTKTGYWEIIA	-0.576
HMDIESREAWVDASGMGVRLDRWLTQLAPEFSRNHLQSLIERGAVRVDGQPALVASRKLRIGQQVAVSLIP	-1.31
HMNPNPFVNLSPRELEVLNLLFKGYGVLEISNELNIGQTTASTFKSRILKKTSTHSVVELIKLAEQYGFIP	-0.85
HMAIIQSNNIFKSQKEIVDEILVELDIPKDKWNFFHMLISSGYKDEFDTNRIYEIIQTNYNMMDR	-0.298
HMYDESVFTGEYHYYYEKLSDDDKLIYRQIYAMMQKRMDGISLNTTDTDNVSRIQQFVLLDNPQF	-2.61
HMSNHYETLGVPRDASQEDIKRAYRRLARKLHPDVAGPGKAEEFKAVNEAYAVLSDEESRRMYDLGGDDAL	0.157
HMIDDNTIIQIGDSYSKSIRLLGEPIELKNRSLNQKSYFMAVYDFKGRRYRLFFENDVLFDILRD	-2.66

Sequence	soluble fraction (log2)
HMLRPMVAILNKNISKGQVISEDYIKFEVRPERQIHGAYHDISEVLGRKTKNNIAAGTILKVRHLDT	-0.69
HMSPPVIQQGQDVRLIYKGTGFAVSNEGKALNTAADGQVARARTGGGQTVSGIARPGGIIEIT	0.391
HMSVKLYPNPTRSVTTFATDVDKWYLYDNQGKLVSEGNTKTIDVTAFPVGIYFVKTIKGNNSTFVKLIV	-2.14
HMNTYVLPDALKSQLSVEDTGMLTKQLQALPETLAEGVLDSLSQMLSKNTLQNPVGWMLAVMKRAREGNFN	-0.305
HMRRSSQQLTLTEVSTIKEMVTSEEYRHVPTGTLALLAQRLRKVFASSSTWYRLVRIYKWRRPRGRIH	-0.329
HMSDPSRKADFIAALSSLGGSAGNGKLREQLGWDEPTYDAVKQTLLDEGAITNGRGRGGSVALAG	0.976
HMGPAYEKIVANGQTFYRYNVKKGEGLMAVSRTFNVSVNDILKYNPSAASGLKDGQELLIPVIDDA	0.16
HMDGQPQLLIKNGQLLVSTALKNGMSANDLMFRLRTEGITDIRYVKRAVLEQNGQLTITQVGDD	-0.622
HMNMPHEIDANFISSLGRLIDNHGKNYGDFQIFREMFLDYFPRFDELSSNNKEKINRRLYKFFETLFG	-2.09
HMAWAVRAGEGVLIRAGQPGFSATTRGTALSNGAIGEGVRVRNLGSGKEIQAWVVDKGEVETR	0.00511
HMPDLSMLDEVLDEYRSQAGSLVTVLQKAQDLYGYLPLTILRHIAEEMNIKPAQVYGVATFYTQFRL	0.0378
HMGKREKTKVANRQAILVAARAVFAELGYEAATVRDIIRGTDLASGTFYNYFKSKEEVFDALADDGA	-1.73
HMVEPTDFTYLKAEVETAKALKQADYTVATWKSFAGELAEAEEVIAKTDASQAEVNEALSHLQAAEKELV	0.23
HMNMLGEQVRNIRKSRGFTLKALAEQTGLSIGYISQIERNLTDPSLSTLRKISAALDVPTYLFMG	-2.13
HMGNFNDMLKYLRVREKMSQAELADKLGVSKSTVGMYELGKREPDFETLEAIADLFNVDMNFLLGK	-0.423
HMNKNNLRNVSSKIRKSRRVLNLSQAELSKKLDISPSYLNLIESGKRPITVPLLIKLGNILGISLKDL	-1.89
HMLTLAVPNSINMRLDKYLSENIDYLSRSKIQGLINDGKVTINGENEKSSYKLNGDESIVIYYEE	-0.377
HMAQTTKWREIHKVKRKETIFGIARDNGLTVDELIEANPEMTKPGYELKKGDFIYIPFPSKNIDTNAGTQT	0.498
HMATTIDFTVGDDVQVMNGPLESFTGKVTELNEASQKVKVDVVMFGRVTNVELDFVQVKKIT	-1.04
HMVNVLKNSTVIDLVKNNLSDALIISLIRRAKVDFSLMTDDVIELSGKGVSPAVIMEMRQAMIRQASEIQN	-0.318
HMRVDLVQRLARHGLSPRQSAVAGGVLRGLDNGEISRQLYIAEQTVKDHLHEIYHRLGVHTRTELLIKVLG	-2.22
HMRQIMIIVLKSTATKEDSLLFKNKLEQEYGVKVNEWTGVESTVLGLIGDTTKIDIDYISAQDIVESVKRV	-2.27
HMRGFGEVGQLPSGRYRARYTGPDGGRHSAPITFVARIDAEGWLVDQERMISRGEWEPPARQ	-0.238
HMAVSGRGSIIGGVATVLDDFADSGKVWLEGEAWQARSSVPLKQDQEVVVRAMDGLVLVVEPVA	-0.442
HMVSVGDIFAGRIISNENGHLLLQLLDGSKISAQTVTDLKYNIGDVLNLEIIEEKQGLIFVRQT	-2.05
HMLDLVSIGKRIKAERQKNGLTQEALAERIEVSAHYVYELERGLKAMSVPILLRMSEVLHTSTDYLLF	-3.34
HMQLEPLITSVIPVNFAKAGEVATTIKGKEVGLVSDRGSITAESRTNVLIVKDIKKNVDDISAMVKRLD	-0.00331
